Results taken from the supplement of paper PMC9112550, “Optimization of the antimicrobial peptide Bac7 by deep mutational scanning” (BMC Biology, 2022).

System: Escherichia coli TOP10
Assay: shrunken log2 fold change of peptide-encoding DNA abundance (4.5 h post-induction vs induction); higher = less antimicrobial activity (less host growth inhibition)
Settings: time post-induction: 4.5 h; library: site-saturation at positions 5, 18, 19, 20
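Further: peptides expressed intracellularly from a pBAD plasmid library in pooled LB shake-flask culture, induced with 0.3% L-arabinose, DNA abundance read by NGS, three biological replicates, DESeq2 with apeglm shrinkage.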

| Sequence | shrunken log2 fold change |
| --- | --- |
| RRIRVRPPRLPRPRPRPYCVPRP | -0.125 |
| RRIRIRPPRLPRPRPRPISSPRP | -0.16 |
| RRIRTRPPRLPRPRPRPENDPRP | -0.0847 |
| RRIRTRPPRLPRPRPRPIKYPRP | 4.24 |
| RRIRVRPPRLPRPRPRPFRQPRP | 0.0805 |
| RRIRMRPPRLPRPRPRPHVNPRP | -0.132 |
| RRIRYRPPRLPRPRPRPRWKPRP | -0.295 |
| RRIRERPPRLPRPRPRPTYGPRP | 0.158 |
| RRIRRRPPRLPRPRPRPIQSPRP | 0.0301 |
| RRIRNRPPRLPRPRPRPWMVPRP | 0.131 |
| RRIRARPPRLPRPRPRPTYIPRP | -0.438 |
| RRIRLRPPRLPRPRPRPDPQPRP | -0.00554 |
| RRIRWRPPRLPRPRPRPVNEPRP | -0.0791 |
| RRIRPRPPRLPRPRPRPCCKPRP | -0.247 |
| RRIRARPPRLPRPRPRPAPAPRP | 0.922 |
| RRIRNRPPRLPRPRPRPQAYPRP | -0.3 |
| RRIRPRPPRLPRPRPRPCFCPRP | 0.299 |
| RRIRMRPPRLPRPRPRPRAWPRP | 0.32 |
| RRIRWRPPRLPRPRPRPVLKPRP | 0.637 |
| RRIRHRPPRLPRPRPRPSYPPRP | -0.868 |
| RRIRERPPRLPRPRPRPAYWPRP | 0.000956 |
| RRIRSRPPRLPRPRPRPMMGPRP | 0.0137 |
| RRIRIRPPRLPRPRPRPTSEPRP | 0.00551 |
| RRIRLRPPRLPRPRPRPYNEPRP | -0.78 |
| RRIRGRPPRLPRPRPRPSDVPRP | 0.0304 |

| Sequence | shrunken log2 fold change |
| --- | --- |
| RRIRMRPPRLPRPRPRPAHMPRP | 0.281 |
| RRIRTRPPRLPRPRPRPRTRPRP | 0.204 |
| RRIRCRPPRLPRPRPRPWIPPRP | -0.457 |
| RRIRRRPPRLPRPRPRPQWVPRP | 0.279 |
| RRIRCRPPRLPRPRPRPAWGPRP | 0.193 |
| RRIRFRPPRLPRPRPRPFRGPRP | -0.224 |
| RRIRLRPPRLPRPRPRPQKMPRP | -0.0278 |
| RRIRARPPRLPRPRPRPEAHPRP | 0.0341 |
| RRIRYRPPRLPRPRPRPYWDPRP | -0.483 |
| RRIRDRPPRLPRPRPRPGGGPRP | 1.08 |
| RRIRWRPPRLPRPRPRPDIVPRP | 0.469 |
| RRIRMRPPRLPRPRPRPSARPRP | 1.07 |
| RRIRMRPPRLPRPRPRPFSGPRP | -0.0134 |
| RRIRSRPPRLPRPRPRPKCEPRP | -0.125 |
| RRIRGRPPRLPRPRPRPQATPRP | 1.2 |
| RRIRMRPPRLPRPRPRPPWAPRP | 0.911 |
| RRIRGRPPRLPRPRPRPINNPRP | -0.0606 |
| RRIRFRPPRLPRPRPRPWYFPRP | -0.303 |
| RRIRNRPPRLPRPRPRPDIAPRP | -0.0447 |
| RRIRERPPRLPRPRPRPSHGPRP | -0.263 |
| RRIRTRPPRLPRPRPRPLLVPRP | -0.119 |
| RRIRWRPPRLPRPRPRPMMHPRP | 0.159 |
| RRIRIRPPRLPRPRPRPANYPRP | -0.33 |
| RRIRKRPPRLPRPRPRPQRIPRP | 0.0286 |
| RRIRGRPPRLPRPRPRPSIHPRP | 0.162 |

| Sequence | shrunken log2 fold change |
| --- | --- |
| RRIRTRPPRLPRPRPRPMFCPRP | -0.628 |
| RRIRTRPPRLPRPRPRPLFFPRP | -0.263 |
| RRIRCRPPRLPRPRPRPTVIPRP | -0.907 |
| RRIRKRPPRLPRPRPRPNRFPRP | -0.0658 |
| RRIRVRPPRLPRPRPRPFEEPRP | -0.000457 |
| RRIRERPPRLPRPRPRPMHKPRP | 0.0621 |
| RRIRLRPPRLPRPRPRPWGDPRP | -0.176 |
| RRIRDRPPRLPRPRPRPVKDPRP | -0.173 |
| RRIRLRPPRLPRPRPRPMEQPRP | 0.168 |
| RRIRERPPRLPRPRPRPNVNPRP | -0.34 |
| RRIRGRPPRLPRPRPRPEKGPRP | 0.136 |
| RRIRGRPPRLPRPRPRPRPGPRP | 1.34 |
| RRIRHRPPRLPRPRPRPLCTPRP | -0.247 |
| RRIRWRPPRLPRPRPRPPHLPRP | 0.0195 |
| RRIRERPPRLPRPRPRPQWNPRP | -0.33 |
| RRIRPRPPRLPRPRPRPCDDPRP | 0.0508 |
| RRIRLRPPRLPRPRPRPGSCPRP | 0.0403 |
| RRIRNRPPRLPRPRPRPYMKPRP | -0.03 |
| RRIRMRPPRLPRPRPRPILDPRP | -0.0606 |
| RRIRPRPPRLPRPRPRPSAEPRP | 0.257 |
| RRIRARPPRLPRPRPRPMRKPRP | -0.046 |
| RRIRMRPPRLPRPRPRPKSKPRP | 0.566 |
| RRIRERPPRLPRPRPRPAKLPRP | -0.0209 |
| RRIRIRPPRLPRPRPRPSDPPRP | -0.136 |
| RRIRRRPPRLPRPRPRPICHPRP | 0.692 |

| Sequence | shrunken log2 fold change |
| --- | --- |
| RRIRVRPPRLPRPRPRPSAGPRP | 0.295 |
| RRIRNRPPRLPRPRPRPSPSPRP | -0.0323 |
| RRIRVRPPRLPRPRPRPWTKPRP | -0.106 |
| RRIRTRPPRLPRPRPRPTHWPRP | 0.987 |
| RRIRARPPRLPRPRPRPWNDPRP | -0.158 |
| RRIRSRPPRLPRPRPRPICLPRP | 0.259 |
| RRIRVRPPRLPRPRPRPACRPRP | -0.132 |
| RRIRRRPPRLPRPRPRPVHFPRP | -0.278 |
| RRIRARPPRLPRPRPRPAFVPRP | 0.315 |
| RRIRCRPPRLPRPRPRPYVHPRP | -1.53 |
| RRIRMRPPRLPRPRPRPWIKPRP | 0.101 |
| RRIRERPPRLPRPRPRPMFRPRP | -0.737 |
| RRIRHRPPRLPRPRPRPDGFPRP | -0.015 |
| RRIRCRPPRLPRPRPRPTNAPRP | 0.307 |
| RRIRYRPPRLPRPRPRPHYLPRP | -0.285 |
| RRIRLRPPRLPRPRPRPSMGPRP | 0.0483 |
| RRIRCRPPRLPRPRPRPCRYPRP | -0.446 |
| RRIRIRPPRLPRPRPRPAVPPRP | -0.181 |
| RRIRSRPPRLPRPRPRPQVNPRP | -0.00752 |
| RRIRWRPPRLPRPRPRPTFFPRP | 0.312 |
| RRIRIRPPRLPRPRPRPDNMPRP | -0.25 |
| RRIRDRPPRLPRPRPRPHSPPRP | -0.264 |
| RRIRQRPPRLPRPRPRPDEPPRP | -0.0062 |
| RRIRIRPPRLPRPRPRPKGHPRP | 0.0764 |
| RRIRIRPPRLPRPRPRPHVAPRP | -0.189 |

| Sequence | shrunken log2 fold change |
| --- | --- |
| RRIRSRPPRLPRPRPRPGSKPRP | -0.0053 |
| RRIRERPPRLPRPRPRPFVDPRP | -0.0208 |
| RRIRPRPPRLPRPRPRPVGTPRP | 0.1 |
| RRIRTRPPRLPRPRPRPSDMPRP | 0.185 |
| RRIRHRPPRLPRPRPRPYYYPRP | -1.31 |
| RRIRCRPPRLPRPRPRPSQTPRP | -0.338 |
| RRIRGRPPRLPRPRPRPPCAPRP | 0.978 |
| RRIRERPPRLPRPRPRPDQCPRP | -0.308 |
| RRIRPRPPRLPRPRPRPQGWPRP | 0.542 |
| RRIRWRPPRLPRPRPRPYKMPRP | 0.0642 |
| RRIRARPPRLPRPRPRPRLEPRP | 0.766 |
| RRIRFRPPRLPRPRPRPYVPPRP | -0.238 |
| RRIRDRPPRLPRPRPRPCKLPRP | -0.0175 |
| RRIRMRPPRLPRPRPRPPYIPRP | -0.0556 |
| RRIRARPPRLPRPRPRPYKKPRP | -0.0244 |
| RRIRCRPPRLPRPRPRPRLIPRP | 0.0496 |
| RRIRIRPPRLPRPRPRPELQPRP | -0.0107 |
| RRIRQRPPRLPRPRPRPMKNPRP | -0.124 |
| RRIRSRPPRLPRPRPRPPMWPRP | 0.54 |
| RRIRSRPPRLPRPRPRPTPLPRP | 0.159 |
| RRIRWRPPRLPRPRPRPCNKPRP | -0.738 |
| RRIRERPPRLPRPRPRPCKMPRP | -0.427 |
| RRIRLRPPRLPRPRPRPLVNPRP | -0.346 |
| RRIRVRPPRLPRPRPRPVQDPRP | 0.0752 |
| RRIRTRPPRLPRPRPRPMDNPRP | -0.458 |

| Sequence | shrunken log2 fold change |
| --- | --- |
| RRIRERPPRLPRPRPRPYSAPRP | -0.269 |
| RRIRCRPPRLPRPRPRPLDSPRP | -0.179 |
| RRIRRRPPRLPRPRPRPQNHPRP | -0.191 |
| RRIRTRPPRLPRPRPRPSLYPRP | -0.522 |
| RRIRDRPPRLPRPRPRPCICPRP | 0.159 |
| RRIRSRPPRLPRPRPRPNQHPRP | -0.201 |
| RRIRVRPPRLPRPRPRPDMYPRP | -0.0946 |
| RRIRQRPPRLPRPRPRPSQEPRP | 0.0169 |
| RRIRFRPPRLPRPRPRPLHPPRP | -0.0197 |
| RRIRWRPPRLPRPRPRPVQYPRP | -0.108 |
| RRIRERPPRLPRPRPRPAKRPRP | 0.0249 |
| RRIRERPPRLPRPRPRPYGKPRP | -0.00133 |
| RRIRKRPPRLPRPRPRPSGEPRP | 0.0144 |
| RRIRMRPPRLPRPRPRPILRPRP | 0.00958 |
| RRIRGRPPRLPRPRPRPFASPRP | 0.215 |
| RRIRGRPPRLPRPRPRPETGPRP | 0.81 |
| RRIRMRPPRLPRPRPRPFHAPRP | 0.199 |
| RRIRKRPPRLPRPRPRPDCHPRP | 0.233 |
| RRIRVRPPRLPRPRPRPDKKPRP | 0.135 |
| RRIRTRPPRLPRPRPRPRFPPRP | 0.115 |
| RRIRHRPPRLPRPRPRPQRWPRP | 0.00359 |
| RRIRWRPPRLPRPRPRPDIHPRP | -0.196 |
| RRIRARPPRLPRPRPRPMGQPRP | 0.229 |
| RRIRHRPPRLPRPRPRPGSKPRP | -0.00664 |
| RRIRQRPPRLPRPRPRPTAVPRP | 0.165 |
